Test results reported in article PMC10653815.

Key:
[1] = target: MosV-RBPβ (C-terminal six-bladed β-propeller head domain of the Mossman virus receptor-binding protein, Glu202−Thr632) (Mossman virus); assay: SEC; Superdex 200 10/30 column, 10 mM Tris pH 8.0, 150 mM NaCl; compared with gel filtration standards; pre- and post-deglycosylation
[2] = target: MosV-RBPβ (C-terminal six-bladed β-propeller head domain of the Mossman virus receptor-binding protein, Glu202−Thr632) (Mossman virus); assay: SEC-SAXS; glycosylated protein, 45 µL at 5 mg/mL on Superdex 200 PC 3.2/30 in TBS, in-line SAXS; curves fitted with monomeric and dimeric crystal models
[3] = target: NarV-RBPβ (C-terminal six-bladed β-propeller head domain of the Nariva virus receptor-binding protein, Glu184−Pro657) (Nariva virus); assay: SEC; Superdex 200 10/30 column, 10 mM Tris pH 8.0, 150 mM NaCl; compared with gel filtration standards; pre- and post-deglycosylation
[4] = target: NarV-RBPβ (C-terminal six-bladed β-propeller head domain of the Nariva virus receptor-binding protein, Glu184−Pro657) (Nariva virus); assay: SEC-SAXS; glycosylated protein, 45 µL at 5 mg/mL on Superdex 200 PC 3.2/30 in TBS, in-line SAXS; curves fitted with monomeric and dimeric crystal models

Substance | stoichiometry N [1] | stoichiometry N [2] | stoichiometry N [3] | stoichiometry N [4]
MosV-RBPβ (C-terminal six-bladed β-propeller head domain of the Mossman virus receptor-binding protein, Glu202−Thr632) (domain or fragment) | 2 | 2 |  | 
NarV-RBPβ (C-terminal six-bladed β-propeller head domain of the Nariva virus receptor-binding protein, Glu184−Pro657) (domain or fragment) |  |  | 2 | 2
